Reference: paper PMC11730874

Legend:
KIF17-mCitrine, Q9P2E2 = biological target: T1, KIF17-mCitrine, Q9P2E2; test: pull-down (His-tag magnetic beads) with Western blot densitometry; conditions: chain shown with the change; Rab23 proteins exchanged with GMPPNP; lysates from HEK293 cells transfected with KIF17-mCitrine; n = 3 independent experiments; parent: 100.00
T1 chain: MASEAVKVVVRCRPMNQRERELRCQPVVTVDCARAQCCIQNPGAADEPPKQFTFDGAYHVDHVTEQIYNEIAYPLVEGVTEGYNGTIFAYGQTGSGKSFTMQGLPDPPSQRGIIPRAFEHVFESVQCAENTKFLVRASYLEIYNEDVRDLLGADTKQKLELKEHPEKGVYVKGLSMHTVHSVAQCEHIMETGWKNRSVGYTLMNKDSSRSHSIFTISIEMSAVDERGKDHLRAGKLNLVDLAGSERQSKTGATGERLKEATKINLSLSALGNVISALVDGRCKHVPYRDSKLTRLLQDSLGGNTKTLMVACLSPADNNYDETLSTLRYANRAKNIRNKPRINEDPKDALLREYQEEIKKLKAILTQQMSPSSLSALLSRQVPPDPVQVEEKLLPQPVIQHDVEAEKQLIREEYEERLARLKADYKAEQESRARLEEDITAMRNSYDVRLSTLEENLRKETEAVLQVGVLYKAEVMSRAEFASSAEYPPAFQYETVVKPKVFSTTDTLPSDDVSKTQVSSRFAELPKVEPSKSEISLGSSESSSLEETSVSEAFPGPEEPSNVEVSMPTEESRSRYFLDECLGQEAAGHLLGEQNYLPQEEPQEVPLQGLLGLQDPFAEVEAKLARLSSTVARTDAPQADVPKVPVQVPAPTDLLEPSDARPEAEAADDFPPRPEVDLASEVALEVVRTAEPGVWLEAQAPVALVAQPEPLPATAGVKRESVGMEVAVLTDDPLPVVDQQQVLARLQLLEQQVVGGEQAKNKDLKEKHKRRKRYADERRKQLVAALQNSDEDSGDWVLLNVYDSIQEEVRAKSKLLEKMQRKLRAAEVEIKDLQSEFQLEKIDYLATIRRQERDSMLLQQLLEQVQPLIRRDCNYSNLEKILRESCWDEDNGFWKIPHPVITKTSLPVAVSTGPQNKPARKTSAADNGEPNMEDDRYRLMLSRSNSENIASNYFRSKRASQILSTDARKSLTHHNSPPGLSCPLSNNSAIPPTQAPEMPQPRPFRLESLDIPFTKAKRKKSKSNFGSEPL

[1] = biological target: T2, WT hRab23_(7-172) (untagged) (human) (UniProt Q9ULC3)
T2 sequence: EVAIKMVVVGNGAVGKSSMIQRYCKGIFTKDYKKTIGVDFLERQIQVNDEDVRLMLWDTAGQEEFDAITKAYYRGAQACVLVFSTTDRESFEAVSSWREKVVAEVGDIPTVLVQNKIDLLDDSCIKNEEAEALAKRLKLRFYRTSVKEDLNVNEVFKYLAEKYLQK

[2] = biological target: T3, hRab23_(7-172) Y79del (untagged) (human) (UniProt Q9ULC3)
T3 sequence: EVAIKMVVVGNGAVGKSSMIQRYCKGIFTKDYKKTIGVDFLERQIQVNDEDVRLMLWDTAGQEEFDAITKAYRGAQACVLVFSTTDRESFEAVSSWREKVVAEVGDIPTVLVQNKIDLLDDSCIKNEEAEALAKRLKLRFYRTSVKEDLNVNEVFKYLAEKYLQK

[3] = biological target: T2, WT hRab23_(7-172) (untagged) (human); remark: listed apart in the source
[4] = biological target: T3, hRab23_(7-172) Y79del (untagged) (human); remark: listed apart in the source

B1: His-SUMO-tagged WT hRab23_(7-172), GMPPNP-loaded, Q9ULC3 Y79del (protein)
chain: T3 sequence
percent of parent (KIF17-mCitrine, Q9P2E2): 54.2%

B2: Inturned-Fuzzy (Intu-Fuz) complex (complex)
chain 1: MASVASCDSRPSSDELPGDPSSQEEDEDYDFEDRVSDSGSYSSASSDYDDLEPEWLDSVQKNGELFYLELSEDEEESLLPETPTVNHVRFSENEIIIEDDYKERKKYEPKLKQFTKILRRKRLLPKRCNKKNSNDNGPVSILKHQSNQKTGVIVQQRYKDVNVYVNPKKLTVIKAKEQLKLLEVLVGIIHQTKWSWRRTGKQGDGERLVVHGLLPGGSAMKSGQVLIGDVLVAVNDVDVTTENIERVLSCIPGPMQVKLTFENAYDVKRETSHPRQKKTQSNTSDLVKLLWGEEVEGIQQSGLNTPHIIMYLTLQLDSETSKEEQEILYHYPMSEASQKLKSVRGIFLTLCDMLENVTGTQVTSSSLLLNGKQIHVAYWKESDKLLLIGLPAEEVPLPRLRNMIENVIQTLKFMYGSLDSAFCQIENVPRLDHFFNLFFQRALQPAKLHSSASPSAQQYDASSAVLLDNLPGVRWLTLPLEIKMELDMALSDLEAADFAELSEDYYDMRRLYTILGSSLFYKGYLICSHLPKDDLIDIAVYCRHYCLLPLAAKQRIGQLIIWREVFPQHHLRPLADSSTEVFPEPEGRYFLLVVGLKHYMLCVLLEAGGCASKAIGSPGPDCVYVDQVKTTLHQLDGVDSRIDERLASSPVPCLSCADWFLTGSREKTDSLTTSPILSRLQGTSKVATSPTCRRTLFGDYSLKTRKPSPSCSSGGSDNGCEGGEDDGFSPHTTPDAVRKQRESQGSDGLEESGTLLKVTKKKSTLPNPFHLGNLKKDLPEKELEIYNTVKLTSGPENTLFHYVALETVQGIFITPTLEEVAQLSGSIHPQLIKNFHQCCLSIRAVFQQTLVEEKKKGLNSGDHSDSAKSVSSLNPVKEHGVLFECSPGNWTDQKKAPPVMAYWVVGRLFLHPKPQELYVCFHDSVTEIAIEIAFKLFFGLTL
chain 2: MGEEGTGGTVHLLCLAASSGVPLFCRSSRGGAPARQQLPFSVIGSLNGVHMFGQNLEVQLSSARTENTTVVWKSFHDSITLIVLSSEVGISELRLERLLQMVFGAMVLLVGLEELTNIRNVERLKKDLRASYCLIDSFLGDSELIGDLTQCVDCVIPPEGSLLQEALSGFAEAAGTTFVSLVVSGRVVAATEGWWRLGTPEAVLLPWLVGSLPPQTARDYPVYLPHGSPTVPHRLLTLTLLPSLELCLLCGPSPPLSQLYPQLLERWWQPLLDPLRACLPLGPRALPSGFPLHTDILGLLLLHLELKRCLFTVEPLGDKEPSPEQRRRLLRNFYTLVTSTHFPPEPGPPEKTEDEVYQAQLPRACYLVLGTEEPGTGVRLVALQLGLRRLLLLLSPQSPTHGLRSLATHTLHALTPLL
GTPase-Glo luminescence (remaining GTP) relative to buffer control, GEF-aided nucleotide exchange; 3 uM Rab23, 2.25 uM Intu-Fuz, 5 uM GTP, 30 °C, 2 h [1]: 17.4%
GTPase-Glo luminescence (remaining GTP) relative to buffer control, GEF-aided nucleotide exchange; 3 uM Rab23 Y79del, 2.25 uM Intu-Fuz, 5 uM GTP, 30 °C, 2 h [2]: 78.2%

B3: ecotropic viral integration site 5-like protein (EVI5L) (enzyme)
chain: MASPTLSPDSSSQEALSAPTCSPTSDSENLSPDELELLAKLEEQNRLLEADSKSMRSMNGSRRNSGSSLVSSSSASSNLSHLEEDTWILWGRIANEWEEWRRRKEKLLKELIRKGIPHHFRAIVWQLLCSATDMPVKNQYSELLKMSSPCEKLIRRDIARTYPEHEFFKGQDSLGQEVLFNVMKAYSLVDREVGYCQGSAFIVGLLLMQMPEEEAFCVFVRLMQEYRLRELFKPSMAELGLCIYQFEYMLQEQLPDLNTHFRSQSFHTSMYASSWFLTLFLTTFPLPVATRVFDIFMYEGLEIVFRVGLALLQVNQAELMQLDMEGMSQYFQRVIPHQFDSCPDKLVLKAYQVKYNPKKMKRLEKEYAAMKSKEMEEQIEIKRLRTENRLLKQRIETLEKGQVTRAQEAEENYVIKRELAVVRQQCSSAAEDLQKAQSTIRQLQEQQENPRLTEDFVSHLETELEQSRLRETETLGALREMQDKVLDMEKRNSSLPDENNVAQLQEELKALKVREGQAVASTRELKLQLQELSDTWQAHLARGGRWKESPRKLVVGELQDELMSVRLREAQALAEGRELRQRVVELETQDHIHRNLLNRVEAERAALQEKLQYLAAQNKGLQTQLSESRRKQAEAECKSKEEVMAVRLREADSMAAVAEMRQRIAELEIQREEGRIQGQLNHSDSSQYIRELKDQIEELKAEVRLLKGPPPFEDPLAFDGLSLARHLDEDSLPSSDEELLGVGVGAALQDALYPLSPRDARFFRRLERPAKDSEGSSDSDADELAAPYSQGLDN
GTPase-Glo luminescence (remaining GTP) relative to buffer control, GAP-stimulated GTPase activity; 3 uM Rab23, 2.25 uM EVI5L, 5 uM GTP, 20 mM EDTA, 30 °C, 2 h [3]: 58%
GTPase-Glo luminescence (remaining GTP) relative to buffer control, GAP-stimulated GTPase activity; 3 uM Rab23 Y79del, 2.25 uM EVI5L, 5 uM GTP, 20 mM EDTA, 30 °C, 2 h [4]: 75.7%
